T1: RimR2 (Streptomyces rimosus M527, UniProt A0ABY3YSD1 1-918)
T1 sequence: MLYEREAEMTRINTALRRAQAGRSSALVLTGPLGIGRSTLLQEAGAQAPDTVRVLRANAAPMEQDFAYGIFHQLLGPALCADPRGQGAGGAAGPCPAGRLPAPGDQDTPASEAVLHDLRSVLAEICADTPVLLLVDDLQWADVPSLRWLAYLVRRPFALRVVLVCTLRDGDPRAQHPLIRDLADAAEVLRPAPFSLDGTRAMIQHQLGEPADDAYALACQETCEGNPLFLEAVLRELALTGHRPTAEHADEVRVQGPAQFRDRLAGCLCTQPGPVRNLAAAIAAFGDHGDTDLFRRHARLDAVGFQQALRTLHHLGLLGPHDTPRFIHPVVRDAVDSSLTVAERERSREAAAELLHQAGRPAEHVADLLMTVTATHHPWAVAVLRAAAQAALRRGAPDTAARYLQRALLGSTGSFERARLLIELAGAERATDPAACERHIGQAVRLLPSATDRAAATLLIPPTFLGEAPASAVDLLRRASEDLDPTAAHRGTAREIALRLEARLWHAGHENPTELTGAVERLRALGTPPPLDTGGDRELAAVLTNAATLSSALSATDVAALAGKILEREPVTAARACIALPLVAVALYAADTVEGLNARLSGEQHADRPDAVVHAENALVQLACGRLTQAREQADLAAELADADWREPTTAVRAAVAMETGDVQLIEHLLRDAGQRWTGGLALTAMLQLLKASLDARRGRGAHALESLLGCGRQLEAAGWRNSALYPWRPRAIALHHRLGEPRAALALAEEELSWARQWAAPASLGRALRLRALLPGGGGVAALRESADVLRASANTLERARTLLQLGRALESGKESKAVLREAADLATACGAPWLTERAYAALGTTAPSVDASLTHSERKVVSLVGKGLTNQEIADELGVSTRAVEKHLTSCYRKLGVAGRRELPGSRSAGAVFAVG


Columns and labels:
[1] = target: T1, RimR2; test: EMSA; competed by 100-fold unlabeled probe; LightShift Chemiluminescent EMSA Kit (Thermo); 0.04 pmol/ul biotin probe, 10 ug RimR2; buffer, salt, pH and temperature not stated; conditions: protein: recombinant; tags: His6 (pET32a, EcoRV/BamHI); blunt
[2] = target: T1, RimR2; test: EMSA; LightShift Chemiluminescent EMSA Kit (Thermo); 0.04 pmol/ul biotin probe, 10 ug RimR2; buffer, salt, pH and temperature not stated; conditions: protein: recombinant; tags: His6 (pET32a, EcoRV/BamHI); blunt

Binder	binding result [1]	binding result [2]
rimA promoter probe (dsDNA) DNA 1: ATCACCGTGCACGAGGGCTGACGCCCGCCCGGGCAGGAGCTCGTGTCCGA DNA 2: TCGGACACGAGCTCCTGCCCGGGCGGGCGTCAGCCCTCGTGCACGGTGAT	binds	
rimC promoter probe (dsDNA) DNA 1: CCCCATCCTGATCACAAAAGACTAAGGGAAATGTTAAAGGTACGGTGTGC DNA 2: GCACACCGTACCTTTAACATTTCCCTTAGTCTTTTGTGATCAGGATGGGG	binds	
rimR2 promoter probe (dsDNA) DNA 1: TACCTACAAGAAATTGCGTATCACCTCACGCAAGGAACTCCGCGCGCGGA DNA 2: TCCGCGCGCGGAGTTCCTTGCGTGAGGTGATACGCAATTTCTTGTAGGTA		binds
